Target: SARS-COV-2 Wuhan WT Spike_del18 on VSV-delG pseudotyped particles (SARS-COV-2) (UniProt P0DTC2)
Experiment: cell-based or functional assay

Substance: VHH72-5mut-Fc (VHH72_h1_E1D_R27L_E31D_Y32I_S56G_L97A-10xGS-hIgG1_EPKSCdel_LALA_K447del) (Fc fusion)
- potency of neutralization against D72-53: 2.5 times

From US20240228596A1
